Assay results as given in patent publication US6531296B1, “Nuclear tyrosine kinase Rak” (The University of North Carolina at Chapel Hill, priority 1995, dated 2003).
No end group written: not given here.

Molecular target: T1, CDC2 (Homo sapiens, UniProt P06493)
T1 construct: incubated with immunoprecipitated CDC2; endogenous in cells
Test: In vitro kinase assay of immunoprecipitated CDC2 with Histone H1 as exogenous substrate
Format: biochemical
Method: The 110 N-terminal amino acids of Rak were produced as a GST fusion protein (RAKNT:GST) and incubated with immunoprecipitated CDC2, and subjected to an in vitro kinase assay with Histone H1 added as an exogenous substrate, and analyzed by SDS-PAGE. […] This fusion protein was incubated with immunoprecipitated CDC2, and subjected to an in vitro kinase assay with Histone H1 added as an exogenous substrate, and analyzed by SDS-PAGE.
The CDC2 binding domain of RAK appears to be between amino acids 86-110. Since the binding of RAK to CDC2 is exceptionally strong, the biological function of this interaction was explored.

T1 sequence (P06493 whole entry): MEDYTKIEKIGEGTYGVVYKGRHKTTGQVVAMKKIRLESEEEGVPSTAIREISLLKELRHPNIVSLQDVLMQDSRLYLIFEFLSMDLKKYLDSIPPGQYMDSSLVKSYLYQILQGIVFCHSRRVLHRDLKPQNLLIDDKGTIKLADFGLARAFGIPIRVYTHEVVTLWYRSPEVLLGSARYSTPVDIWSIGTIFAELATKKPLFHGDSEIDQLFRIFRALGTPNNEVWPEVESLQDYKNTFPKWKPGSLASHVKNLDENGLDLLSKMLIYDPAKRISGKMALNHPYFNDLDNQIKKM

Sequence: KRRDGSSQQLQ [SEQ ID NO:4]
- inhibition of CDC2 histone H1 phosphorylation activity: reproducibly attenuated
